# In the supplement of paper PMC7877785:
# ± gives the uncertainty stated by the source.
# Assay: self-splicing fitness, log relative to wild type (ln ratio); higher = more splicing; Tetrahymena group I intron in knt gene, E. coli kanamycin selection, DiMSum; sequences stand for … in CUCUCU…GGAGGGAAAAGUUAUCAGGCAUGCACCUGGUAGCUAGUCUUUAAACCAAUAGAUUGCAUCGGUUUAAAAGGCAAGACCGUCAAAUUGCGGGAAAGGGGUCAACAGCCGUUCAGUACCAAGUCUCAGGGGAAACUUUGAGAUGGCCUUGCAAAGGGUAUGGUAAUAAGCUGACGGACAUGGUCCUAACCACGCAGCCAAGUCCUAAGUCAACAGAUCUUCUGUUGAUAUGGAUGCAGUUCACAGACUAAAUGUCGGUCGGGGAAGAUGUAUUCUUCUCAUAAGAUAUAGUCGGACCUCUCCUUAAUGGGAGCUAGCGGAUGAAGUGAUGCAACACUGGAGCCGCUGGGAACUAAUUUGUAUGCGAAAGUAUAUUGAUUAGUUUUGGAGUACUCGUGGUCG
# How it was run: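 DiMSum derived fitness as the error-weighted combination of fold changes across replicates, kanamycin versus no kanamycin, normalised to wild type. E. coli BL21(DE3) held the library, which randomised all eight P1ex-region intron nucleotides within the knt kanamycin-resistance gene on pET-22b(+). Six replicate transformations grew overnight at 37°C or 30°C on LB agar with or without 25 μg/mL kanamycin, also containing 100 μg/mL carbenicillin, 50 μM IPTG and 0.2% rhamnose, and pooled colonies were amplicon-sequenced on an Illumina HiSeq 2500.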
Sequence,self-splicing fitness (ln) (30 °C),self-splicing fitness (ln) (37 °C)
GCUCAGCAAUAUUACGCCCA,-1.99 ± 0.25,-1.09 ± 0.23
GCUCAGCAAUAUUACGCGUA,-0.217 ± 0.067,-0.265 ± 0.079
GCUCAGCAAUAUUACGCGUU,-0.447 ± 0.066,0.599 ± 0.084
GCUCAGCAAUAUUACGCUGU,-1.22 ± 0.073,-0.159 ± 0.081
GCUCAGCAAUAUUACGCUUA,-1.4 ± 0.054,-0.165 ± 0.06
GCUCAGCAAUAUUACGGAAC,-0.677 ± 0.073,0.0247 ± 0.11
GCUCAGCAAUAUUACGGAGU,-4.36 ± 0.29,-3.35 ± 0.32
GCUCAGCAAUAUUACGGCCA,-1.77 ± 0.15,-0.805 ± 0.16
GCUCAGCAAUAUUACGGGGG,-3.18 ± 0.17,-1.92 ± 0.16
GCUCAGCAAUAUUACGGGUG,-0.435 ± 0.055,-0.211 ± 0.074
GCUCAGCAAUAUUACGGUAU,-1.14 ± 0.061,0.0133 ± 0.075
GCUCAGCAAUAUUACGUAGA,-0.134 ± 0.073,-0.191 ± 0.084
GCUCAGCAAUAUUACGUCGU,-0.158 ± 0.057,0.486 ± 0.082
GCUCAGCAAUAUUACGUCUC,-0.67 ± 0.12,-0.754 ± 0.1
GCUCAGCAAUAUUACGUUGC,-1.99 ± 0.17,-1.27 ± 0.16
GCUCAGCAAUAUUACGUUGG,-1.96 ± 0.17,-2.46 ± 0.19
GCUCAGCAAUAUUACGUUGU,-0.847 ± 0.042,-0.0979 ± 0.057
GCUCAGCAAUAUUACGUUUA,-1.44 ± 0.09,-0.861 ± 0.083
GCUGAGCAAUAUUACGAAAC,-2.42 ± 0.17,0.274 ± 0.14
GCUGAGCAAUAUUACGACCA,-3.18 ± 0.41,-1.57 ± 0.39
GCUGAGCAAUAUUACGACGG,-1.27 ± 0.17,-0.245 ± 0.27
GCUGAGCAAUAUUACGACUG,-2.16 ± 0.35,-0.83 ± 0.38
GCUGAGCAAUAUUACGAGAG,-2.49 ± 0.23,-2.41 ± 0.22
GCUGAGCAAUAUUACGAGGG,-2.71 ± 0.16,-2.45 ± 0.31
GCUGAGCAAUAUUACGAGUG,-0.948 ± 0.14,-1.2 ± 0.17

Sequence,self-splicing fitness (ln) (30 °C),self-splicing fitness (ln) (37 °C)
GCUGAGCAAUAUUACGCAGA,-2.47 ± 0.29,-1.6 ± 0.32
GCUGAGCAAUAUUACGCGGA,-4.07 ± 0.35,-2.82 ± 0.23
GCUGAGCAAUAUUACGCGUC,-1.94 ± 0.17,-0.941 ± 0.21
GCUGAGCAAUAUUACGGCAA,-1.52 ± 0.21,-2.9 ± 0.31
GCUGAGCAAUAUUACGGGUA,-1.3 ± 0.091,-1.15 ± 0.1
GCUGAGCAAUAUUACGUACG,-2.59 ± 0.27,-1.16 ± 0.29
GCUGAGCAAUAUUACGUAGG,-1.82 ± 0.084,-1.24 ± 0.12
GCUGAGCAAUAUUACGUAUG,-3.21 ± 0.16,-2.61 ± 0.33
GCUGAGCAAUAUUACGUCUA,-2.85 ± 0.22,-1.06 ± 0.14
GCUGAGCAAUAUUACGUGAG,-1.73 ± 0.11,-1.28 ± 0.095
GCUGAGCAAUAUUACGUUAC,–,-2.37 ± 0.32
GCUUAGCAAUAUUACGACAC,-0.819 ± 0.21,-0.721 ± 0.16
GCUUAGCAAUAUUACGACAG,-2.97 ± 0.3,-1.93 ± 0.47
GCUUAGCAAUAUUACGACAU,-1.26 ± 0.014,-0.365 ± 0.033
GCUUAGCAAUAUUACGAGUU,-1.62 ± 0.091,-0.362 ± 0.11
GCUUAGCAAUAUUACGAUCG,-1.19 ± 0.1,-0.254 ± 0.12
GCUUAGCAAUAUUACGAUGG,-1.54 ± 0.1,-0.452 ± 0.097
GCUUAGCAAUAUUACGCCAA,-4.1 ± 0.43,–
GCUUAGCAAUAUUACGCCAU,–,-2.2 ± 0.39
GCUUAGCAAUAUUACGCCGC,-3.07 ± 0.5,–
GCUUAGCAAUAUUACGCGAC,-3.07 ± 0.29,-1.73 ± 0.2
GCUUAGCAAUAUUACGCGAG,-2.04 ± 0.22,-2.56 ± 0.33
GCUUAGCAAUAUUACGCGGU,-3.52 ± 0.2,-3.42 ± 0.28
GCUUAGCAAUAUUACGGCCA,–,-0.846 ± 0.27
